What was measured:
Experiment in all cases: cell-based or functional assay
[1] = target: HIV-1 Env of isolate MGRM-C-005 (subtype C) (HIV-1)
[2] = target: HIV-1 Env of isolate MG RM-D-003 (HIV-1)
[3] = target: HIV-1 Env of isolate MGRM-AG-002 (subtype AG) (HIV-1)
[4] = target: HIV-1 Env of isolate 92UG114 (HIV-1)
[5] = target: aMLV envelope, on pseudovirus (negative control virus)
[6] = target: HIV-1 envelope glycoprotein (Env) of isolate MGRM-C-027 (HIV-1)
[7] = target: HIV-1 MGRM-C-028 Env (pseudovirus, clade C) (HIV-1)
[8] = target: HIV-1 Env of isolate MGRM-Chronic-B-018 (subtype B) (HIV-1)
[9] = target: HIV-1 Env of isolate MGRM-A-003 (HIV-1)
[10] = target: HIV-1 Env of isolate MGRM-Chronic-B-011 (subtype B) (HIV-1)
[11] = target: HIV-1 Env of isolate 92UG024 (clade D), on pseudovirus (HIV-1)
[12] = target: HIV-1 envelope glycoprotein (Env) of isolate MGRM-C-025 (HIV-1)
[13] = target: HIV-1 Env of isolate MG RM-D-022 (HIV-1)
[14] = target: HIV-1 MGRM-C-027 Env (pseudovirus, clade C) (HIV-1)
[15] = target: HIV-1 Env of isolate MGRM-A-004 (HIV-1)
[16] = target: HIV-1 Env of isolate 98IN022 (subtype C) (HIV-1)
[17] = target: HIV-1 Env of isolate 92RW008 (HIV-1)
[18] = target: HIV-1 Env of isolate MGRM-AE-008 (subtype AE) (HIV-1)
[19] = target: HIV-1 Env of isolate JRCSF (subtype B) (HIV-1) (UniProt P20871)
[20] = target: HIV-1 Env of isolate MGRM-Chronic-B-020 (subtype B) (HIV-1)
[21] = target: HIV-1 Env of isolate MGRM-D-016 (pseudovirus) (HIV-1)
[22] = target: HIV-1 Env of isolate MGRM-Chronic-B-017 (subtype B pseudovirus) (HIV-1)
[23] = target: HIV-1 Env of isolate MGRM-Chronic-B-001 (subtype B pseudovirus) (HIV-1)
[24] = target: HIV-1 Env of isolate 92UG024 (pseudovirus) (HIV-1)
[25] = target: HIV-1 Env of isolate MGRM-AE-004 (HIV-1)
[26] = target: HIV-1 Env of isolate 92UG114 (pseudovirus) (HIV-1)
[27] = target: HIV-1 Env of isolate SF162 (subtype B pseudovirus) (HIV-1) (UniProt P19550)
[28] = target: HIV-1 Env of isolate MGRM-F1-006 (pseudovirus) (HIV-1)
[29] = target: HIV-1 93UG077 envelope glycoprotein (Env) on pseudovirus (HIV-1)
[30] = target: HIV-1 Env of isolate MGRM-D-022 (pseudovirus) (HIV-1)
[31] = target: HIV-1 92BR020 envelope glycoprotein (Env) on pseudovirus (HIV-1)
[32] = target: HIV-1 Env of isolate MGRM-AE-005 (HIV-1)
[33] = target: HIV-1 Env of isolate MGRM-C-028 (HIV-1)

Chain of 5329_C19 (PGT-136) (antibody) (VH): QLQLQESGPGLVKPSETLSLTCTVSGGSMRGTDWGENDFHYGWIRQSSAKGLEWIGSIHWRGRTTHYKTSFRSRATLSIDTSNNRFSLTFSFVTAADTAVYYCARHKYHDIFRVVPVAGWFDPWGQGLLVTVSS
Chain of 5329_C19 (PGT-136) (antibody) (VL): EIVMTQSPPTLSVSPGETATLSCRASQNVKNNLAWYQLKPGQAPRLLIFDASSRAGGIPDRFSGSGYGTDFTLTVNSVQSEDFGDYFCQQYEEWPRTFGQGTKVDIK
Chain of 5345_I01 (PGT-137) (antibody) (VH): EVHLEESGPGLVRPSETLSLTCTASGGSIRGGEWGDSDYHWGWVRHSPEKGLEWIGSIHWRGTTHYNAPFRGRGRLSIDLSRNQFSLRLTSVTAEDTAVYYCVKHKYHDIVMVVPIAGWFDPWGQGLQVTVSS
Chain of 5345_I01 (PGT-137) (antibody) (VL): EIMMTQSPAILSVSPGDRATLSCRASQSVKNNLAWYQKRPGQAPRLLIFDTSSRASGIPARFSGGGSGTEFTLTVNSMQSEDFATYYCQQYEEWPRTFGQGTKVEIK

| Substance | IC50 neutralization [1] [µg/mL] | IC50 (µg/mL), pseudovirus neutralization [2] [µg/mL] | IC50 (µg/mL), pseudovirus neutralization [3] [µg/mL] | IC50 (µg/mL), pseudovirus neutralization [4] [µg/mL] | IC50, pseudovirus neutralization [5] [µg/mL] | IC50 (µg/mL), pseudovirus neutralization [6] [µg/mL] | IC50 neutralization [7] [µg/mL] | IC50 neutralization [8] [µg/mL] | IC50 [9] [µg/mL] | IC50 neutralization [10] [µg/mL] | IC50, pseudovirus neutralization [11] [µg/mL] | IC50 (µg/mL), pseudovirus neutralization [12] [µg/mL] | IC50 (µg/mL), pseudovirus neutralization [13] [µg/mL] | IC50 neutralization [14] [µg/mL] | IC50 [15] [µg/mL] | IC50 neutralization [16] [µg/mL] | IC50 [17] [µg/mL] | IC50 (µg/mL), pseudovirus neutralization [18] [µg/mL] | IC50 neutralization [19] [µg/mL] | IC50 neutralization [20] [µg/mL] | other results |
| --- | --- | --- | --- | --- | --- | --- | --- | --- | --- | --- | --- | --- | --- | --- | --- | --- | --- | --- | --- | --- | --- |
| 5147_N06 (PGT-130) (antibody) | 0.935 | 0.651 | > 50 | > 50 | > 10 | 0.008 | > 10 | 31.9 | > 50 | 0.153 | > 10 | > 50 | > 50 | 0.0052 | > 50 | > 50 | 0.089 | > 50 | 0.01 | 0.014 |  |
| 5136_H01 (PGT-131) (antibody) | 1.36 | 19.6 | > 50 | > 50 |  | 0.065 |  | > 50 | > 50 | 6.47 |  | > 50 | > 50 |  | > 50 | > 50 | 1.01 | > 50 | 0.029 | 0.053 |  |
| 5343_B08 (PGT-135) (antibody) | > 50 | > 50 | > 50 | 1.29 | > 10 | > 50 | 2.16 | > 50 | > 50 | > 50 | 0.0139 | > 50 | > 50 | > 10 | > 50 | 0.014 | 1.42 | > 50 | 0.131 | 0.057 |  |
| 5345_I01 (PGT-137) (antibody) | > 50 | > 50 | > 50 | > 50 |  | > 50 |  | > 50 | > 50 | > 50 |  | > 50 | > 50 |  | > 50 | 0.408 | 0.148 | > 50 | > 50 | 32.9 |  |
| 5114_A19 (PGT-128) (antibody) | 0.03 | 0.019 | 4.99 | 0.083 |  | 0.081 |  | 0.02 | > 50 | 0.02 |  | 10.5 | > 50 |  | > 50 | 0.014 | 0.003 | > 50 | 0.003 | 0.007 |  |
| 4858_P08 (PGT-123) (antibody) |  |  |  |  | > 10 |  | 0.443 |  |  |  | > 10 |  |  | 0.0169 |  |  |  |  |  |  | IC50, pseudovirus neutralization [21]: > 50 µg/mL; IC50 (µg/mL), pseudovirus neutralization [22]: > 50 µg/mL; IC50 (µg/mL), pseudovirus neutralization [23]: 0.15 µg/mL; IC50, pseudovirus neutralization [24]: > 50 µg/mL; IC50 [25]: > 50 µg/mL; IC50, pseudovirus neutralization [26]: 0.005 µg/mL; IC50 (µg/mL), pseudovirus neutralization [27]: 0.005 µg/mL; IC50, pseudovirus neutralization [28]: 6.89 µg/mL; neutralization IC50 [29]: 0.0303 µg/mL; neutralization IC80 [29]: 0.143 µg/mL; neutralization IC90 [29]: 0.35 µg/mL; neutralization IC95 [29]: 0.78 µg/mL; IC50, pseudovirus neutralization [30]: > 50 µg/mL; neutralization IC50 [31]: 0.013 µg/mL; neutralization IC80 [31]: 0.039 µg/mL; neutralization IC90 [31]: 0.0741 µg/mL; neutralization IC95 [31]: 0.134 µg/mL; IC50 [32]: > 50 µg/mL; neutralization IC50 [33]: 0.402 µg/mL |
| 5329_C19 (PGT-136) (antibody) | > 50 | > 50 | > 50 | > 50 | > 10 | > 50 | > 10 | > 50 | > 50 | > 50 | 0.0915 | > 50 | > 50 | > 10 | > 50 | 13.6 | > 50 | > 50 | > 50 | > 50 |  |
